Reference: patent publication US20030149244A1 (Genentech, published 2003)

Key:
[1] = target: membrane IgE on U266B1 cells (human, UniProt P01854 1-546); experiment: FACS on membrane IgE+ U266B1 cells
[2] = target: T1, human IgE (human, UniProt P01854 1-546, FITC-, biotin- or 125I-labelled in some assays); experiment: FACS, blocking of FITC-IgE binding to FcεRII (CD23) on IM9 cells
[3] = target: T1, human IgE; experiment: soluble receptor ELISA, ratio of 50% inhibition concentrations
[4] = target: T1, human IgE; experiment: as above; remark: listed apart in the source

T1 sequence (P01854 whole entry): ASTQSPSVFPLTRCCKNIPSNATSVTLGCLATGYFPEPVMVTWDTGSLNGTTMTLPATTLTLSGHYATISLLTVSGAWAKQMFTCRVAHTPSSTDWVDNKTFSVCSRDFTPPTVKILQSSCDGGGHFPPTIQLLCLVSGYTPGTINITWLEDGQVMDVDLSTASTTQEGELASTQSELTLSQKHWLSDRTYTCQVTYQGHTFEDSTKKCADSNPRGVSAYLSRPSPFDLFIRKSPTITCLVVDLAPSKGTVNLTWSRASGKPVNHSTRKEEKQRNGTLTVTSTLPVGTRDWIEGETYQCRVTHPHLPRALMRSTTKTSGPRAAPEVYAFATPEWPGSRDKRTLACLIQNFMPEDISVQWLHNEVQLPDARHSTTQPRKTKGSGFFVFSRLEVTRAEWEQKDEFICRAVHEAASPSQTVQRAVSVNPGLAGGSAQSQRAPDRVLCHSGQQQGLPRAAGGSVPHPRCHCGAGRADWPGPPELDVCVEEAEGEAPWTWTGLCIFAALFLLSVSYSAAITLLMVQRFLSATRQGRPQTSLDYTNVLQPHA
Chain of membrane IgE on U266B1 cells (P01854 whole entry, one chain of several): as the sequence (P01854 whole entry) above

Row | Binder | EC50 [1] | EC50 [2] | ratio F(ab)-X / F(ab)-2 [3] | ratio F(ab)-X / MaE11 [3] | ratio Variant X / IgG1-2 [4] | ratio Variant X / MaE11 [4]
1 | MaE13 (antibody, V domains shown) VH: DVQLQESGPGLVKPSQSLSLTCTVTGYTITSDNAWNWIRQFPGNKLEWMGYINHSGTTSYNPSLKSRISITRDTSKNQFFLQLNSVTTEDTATYYCAWVVAYAMDYWGQGTSVTVSS VL: DIVMTQSQKFMSTSVGDRVSVTCKASQNVSSNVAWYQQKPGQSPKALIYSASYRYSGVPDRFTGSGSGTDFTLTISNVQSEDLAEYFCQQYYTYPLYTFGGGTKLEIK | 1 µg/mL | 0.7 µg/mL | – | – | – | –
2 | MaE15 (antibody, V domains shown) VH: DVQHQESEPDLVKPSQSLSLTCTVTGYSITSGYNRHWIRQFPGNKLEWMGYIHYSGSTNYNPSLKRRISITRDTSKNQFFLQLNSVTTEDTATYYCARGSIYYYGSRYRYFDVWGAGTTVTVSS VL: DIQLTQSPASLAVSLGQRATISCKASQSVDYDGDSYMNWYQQKPGQPPKLLIYAASNLESGIPARFSGSGSGTDFTLNIHPVEEEDAATYYCQQSNEDPFTFGAGT | 6 µg/mL | 0.6 µg/mL | – | – | – | –
3 | MaE11 (antibody, mouse IgG1, V domains shown, murine IgG1; also called murine MaE11; MeE11) VH: DVQLQESGPGLVKPSQSLSLACSVTGYSITSGYSWNWIRQFPGNKLEWMGSITYDGSSNYNPSLKNRISVTRDTSQNQFFLKLNSATAEDTATYYCARGSHYFGHWHFAVWGAGTTVTVSS VL: DIQLTQSPASLAVSLGQRATISCKASQSVDYDGDSYMNWYQQKPGQPPILLIYAASYLGSEIPARFSGSGSGTDFTLNIHPVEEEDAATFYCQQSHEDPYTFGAGTKLEIK | – | – | 0.03 | 1 | 0.06 | 1
